Test results reported in US20260117259A1.
Where two headings read alike, the source gives them in different places.

Legend:
SOSIP [1] = test: flow cytometry of murine B cells edited with the VRC26.25 HCDR3, APC-labeled SOSIP trimer against anti-IgM; activation Anti-CD180
SOSIP [2] = test: flow cytometry of murine B cells edited with the VRC26.25 HCDR3, APC-labeled SOSIP trimer against anti-IgM; activation High dose LPS
SOSIP [3] = test: flow cytometry of murine B cells edited with the VRC26.25 HCDR3, APC-labeled SOSIP trimer against anti-IgM; activation Low dose LPS + IL4
[4] = target: ConM SOSIP protein (v8.1ds) modified with the CRF250 V1V2 region (HIV-1); test: flow cytometry, VRC26.25 HCDR3-edited primary murine B cells, labeled SOSIP against surface IgM
ConM-v7 (GnTI-) = test: as above
CRF250ConM-v7ds (GnTI-) = test: as above
ConM-v8.1(GnTI-) = test: as above
BG505ConM-v7ds = test: as above
ConM-8.1ds (GnTI-) = test: as above
CRF250ConM-v8.1 (GnTI-) = test: as above
ConM-v8.1ds [5] = test: as above
CRF250ConM-v7ds = test: as above
ConM-v7 = test: as above
BG505ConM-v7ds (GnTI-) = test: as above
ConM-v7ds (GnTI-) = test: as above
CRFConM-v8.1ds (GnTI-) = test: as above
[6] = target: ConM SOSIP protein (v8.1ds) modified with the BG505 V1V2 region (HIV-1); test: as above
BG505ConM-v8.1 (GnTI-) = test: as above
ConM-v7ds = test: as above
BG505ConM-v8.1 = test: as above
BG505ConM-v8.1ds (GnTI-) = test: as above
[7] = target: ConM SOSIP protein (v8.1ds) modified with the CRF250 V1V2 region (HIV-1); test: as above; remark: listed apart in the source
[8] = target: 16055-ConM-v8.1ds SOSIP trimer (HIV-1); test: as above
ConM-v8.1ds [9] = test: as above; remark: listed apart in the source
[10] = target: ConM SOSIP protein (v8.1ds) modified with the BG505 V1V2 region (HIV-1); test: as above; remark: listed apart in the source
[11] = target: 16055-ConM-v8.1ds SOSIP trimer (HIV-1); test: flow cytometry, primary murine B cells edited in the HCDR3, labeled 16055-ConM-v8.1ds SOSIP against surface IgM

## B-cell receptors of primary murine B cells edited to express the VRC26.25 HCDR3 (antibody)
SOSIP [1]
  % of cells above the SOSIP gate line: 4.47%
SOSIP [2]
  % of cells above the SOSIP gate line: 3.41%
SOSIP [3]
  % of cells above the SOSIP gate line: 4.62%
[4]
  % of cells in the SOSIP gate: 6.6%
ConM-v7 (GnTI-)
  % of cells in the SOSIP gate: 7.31%
CRF250ConM-v7ds (GnTI-)
  % of cells in the SOSIP gate: 6.33%
ConM-v8.1(GnTI-)
  % of cells in the SOSIP gate: 6.89%
BG505ConM-v7ds
  % of cells in the SOSIP gate: 5.08%
ConM-8.1ds (GnTI-)
  % of cells in the SOSIP gate: 7.68%
CRF250ConM-v8.1 (GnTI-)
  % of cells in the SOSIP gate: 5.16%
ConM-v8.1ds [5]
  % of cells in the SOSIP gate: 6.58%
CRF250ConM-v7ds
  % of cells in the SOSIP gate: 5.46%
ConM-v7
  % of cells in the SOSIP gate: 5.57%
BG505ConM-v7ds (GnTI-)
  % of cells in the SOSIP gate: 4.61%
ConM-v7ds (GnTI-)
  % of cells in the SOSIP gate: 4.48%
CRFConM-v8.1ds (GnTI-)
  % of cells in the SOSIP gate: 7.8%
[6]
  % of cells in the SOSIP gate: 5.87%
BG505ConM-v8.1 (GnTI-)
  % of cells in the SOSIP gate: 7.41%
ConM-v7ds
  % of cells in the SOSIP gate: 5.51%
BG505ConM-v8.1
  % of cells in the SOSIP gate: 5.19%
BG505ConM-v8.1ds (GnTI-)
  % of cells in the SOSIP gate: 6.39%
[7]
  % of cells in the SOSIP gate: 3.22%
[8]
  % of cells in the SOSIP gate: 3.83%
ConM-v8.1ds [9]
  % of cells in the SOSIP gate: 3.62%
[10]
  % of cells in the SOSIP gate: 3.59%
[11]
  % of cells in the SOSIP gate: 4.54%
